B1: 30-bp footprint fragment (dsDNA)
DNA 1: ATATAATCAATTTAAGAAAACGTTTTCATG
DNA 2: CATGAAAACGTTTTCTTAAATTGATTATAT
B2: 18-bp minimal LipR site (dsDNA)
DNA 1: TAAGAAAACGTTTTCATG
DNA 2: CATGAAAACGTTTTCTTA
B3: D6 (dsDNA)
DNA 1: CAATTTAAGAAAACGTTTTCATG
DNA 2: CATGAAAACGTTTTCTTAAATTG

Molecular target: T1, LipR (Bacillus thuringiensis BMB171, UniProt A0A0G3DYA8 1-337)
T1 sequence: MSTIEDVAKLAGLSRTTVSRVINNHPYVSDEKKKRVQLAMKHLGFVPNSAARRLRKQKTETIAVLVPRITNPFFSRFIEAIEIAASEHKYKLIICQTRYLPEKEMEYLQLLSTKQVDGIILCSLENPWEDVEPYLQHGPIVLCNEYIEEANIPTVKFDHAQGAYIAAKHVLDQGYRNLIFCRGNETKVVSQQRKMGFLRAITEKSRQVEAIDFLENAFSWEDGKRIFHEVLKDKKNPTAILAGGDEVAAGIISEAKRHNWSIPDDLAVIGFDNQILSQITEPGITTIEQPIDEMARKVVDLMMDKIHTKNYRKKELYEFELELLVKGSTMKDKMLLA
Test: EMSA; LipR: 25 mM Tris pH 8.5-9, 150 mM NaCl, 10% glycerol; CcpA/AbrB: 50 mM Tris-HCl pH 7.5, 10 mM MgCl2, 1 mM DTT, 100 mM NaCl; 28 C, 25 min, 10 ul; 500 ng poly(dI-dC) when needed; 6% native PAGE, 0.5x TBE
Details: protein: recombinant, tags: C-terminal His (pET-28a), chain copies: 2

Binder | binding result | binding result (blunt)
B1 | binds | –
B2 | – | binds
B3 | binds | –
